# Experimental data: article PMC5316841
# Biological target: Fbxw7 (UniProt Q969H0)
# Assay: anti-FLAG co-IP, HSF1 immunoblot
# Details: reference: wild type HSF1; sites S303
substance,measurement,value
HSF1 (from UniProt Q00613) HSF1 S303A,binding against the reference,weaker
